In the supplement of paper PMC9112550, “Optimization of the antimicrobial peptide Bac7 by deep mutational scanning” (BMC Biology, 2022):

System: Escherichia coli TOP10
Experiment: shrunken log2 fold change of peptide-encoding DNA abundance (4.5 h post-induction vs induction); higher = less antimicrobial activity (less host growth inhibition)
Conditions: time post-induction: 4.5 h; library: site-saturation at positions 5, 18, 19, 20
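Also: peptides expressed intracellularly from a pBAD plasmid library in pooled LB shake-flask culture, induced with 0.3% L-arabinose, DNA abundance read by NGS, three biological replicates, DESeq2 with apeglm shrinkage.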

RRIRDRPPRLPRPRPRPECVPRP
shrunken log2 fold change: 1.3

RRIRDRPPRLPRPRPRPEFAPRP
shrunken log2 fold change: 1.54

RRIRLRPPRLPRPRPRPHFHPRP
shrunken log2 fold change: -0.0565

RRIRFRPPRLPRPRPRPYLLPRP
shrunken log2 fold change: -1.11

RRIRLRPPRLPRPRPRPCWNPRP
shrunken log2 fold change: -0.291

RRIRARPPRLPRPRPRPDVDPRP
shrunken log2 fold change: 1.1

RRIRERPPRLPRPRPRPQVTPRP
shrunken log2 fold change: -0.118

RRIRMRPPRLPRPRPRPNVWPRP
shrunken log2 fold change: 0.303

RRIRGRPPRLPRPRPRPCLCPRP
shrunken log2 fold change: 0.655

RRIRIRPPRLPRPRPRPWLGPRP
shrunken log2 fold change: 0.0945

RRIRGRPPRLPRPRPRPYCAPRP
shrunken log2 fold change: -0.119

RRIRMRPPRLPRPRPRPAAIPRP
shrunken log2 fold change: 0.456

RRIRVRPPRLPRPRPRPTTCPRP
shrunken log2 fold change: -0.0091

RRIRWRPPRLPRPRPRPTTYPRP
shrunken log2 fold change: -0.187

RRIRPRPPRLPRPRPRPFKMPRP
shrunken log2 fold change: -0.384

RRIRWRPPRLPRPRPRPWPHPRP
shrunken log2 fold change: 0.204

RRIRHRPPRLPRPRPRPKIYPRP
shrunken log2 fold change: -0.296

RRIRVRPPRLPRPRPRPCFMPRP
shrunken log2 fold change: -0.302

RRIRWRPPRLPRPRPRPQYMPRP
shrunken log2 fold change: -0.164

RRIRNRPPRLPRPRPRPPERPRP
shrunken log2 fold change: 0.537

RRIRVRPPRLPRPRPRPFAEPRP
shrunken log2 fold change: 0.171

RRIRPRPPRLPRPRPRPDMEPRP
shrunken log2 fold change: -0.0437

RRIRRRPPRLPRPRPRPHGSPRP
shrunken log2 fold change: -0.0609

RRIRHRPPRLPRPRPRPMDGPRP
shrunken log2 fold change: -0.0367

RRIRMRPPRLPRPRPRPDPNPRP
shrunken log2 fold change: 0.0963

RRIRCRPPRLPRPRPRPYTRPRP
shrunken log2 fold change: -0.669

RRIRIRPPRLPRPRPRPFEGPRP
shrunken log2 fold change: -0.221

RRIRVRPPRLPRPRPRPGQKPRP
shrunken log2 fold change: 0.00253

RRIRCRPPRLPRPRPRPGTLPRP
shrunken log2 fold change: -0.237

RRIRVRPPRLPRPRPRPTAAPRP
shrunken log2 fold change: 0.09

RRIRPRPPRLPRPRPRPLFDPRP
shrunken log2 fold change: 0.0231

RRIRQRPPRLPRPRPRPDRPPRP
shrunken log2 fold change: 0.00639

RRIRFRPPRLPRPRPRPRGLPRP
shrunken log2 fold change: -0.0929

RRIRLRPPRLPRPRPRPLNIPRP
shrunken log2 fold change: -0.221

RRIRQRPPRLPRPRPRPDYMPRP
shrunken log2 fold change: -0.453

RRIRGRPPRLPRPRPRPNTWPRP
shrunken log2 fold change: 0.237

RRIRRRPPRLPRPRPRPTFIPRP
shrunken log2 fold change: -0.0768

RRIRSRPPRLPRPRPRPLNNPRP
shrunken log2 fold change: -0.124

RRIRERPPRLPRPRPRPMKKPRP
shrunken log2 fold change: 0.00499

RRIRARPPRLPRPRPRPRAMPRP
shrunken log2 fold change: 0.808

RRIRGRPPRLPRPRPRPLMGPRP
shrunken log2 fold change: 0.373

RRIRFRPPRLPRPRPRPAIQPRP
shrunken log2 fold change: -0.102

RRIRGRPPRLPRPRPRPEPLPRP
shrunken log2 fold change: 0.341

RRIRMRPPRLPRPRPRPTPVPRP
shrunken log2 fold change: 1.14

RRIRARPPRLPRPRPRPRWFPRP
shrunken log2 fold change: 0.623

RRIRDRPPRLPRPRPRPNNQPRP
shrunken log2 fold change: -0.513

RRIRLRPPRLPRPRPRPCYHPRP
shrunken log2 fold change: -0.569

RRIRARPPRLPRPRPRPHSDPRP
shrunken log2 fold change: 0.39

RRIRKRPPRLPRPRPRPAQLPRP
shrunken log2 fold change: 0.0282

RRIRHRPPRLPRPRPRPGKKPRP
shrunken log2 fold change: -0.0335

RRIRVRPPRLPRPRPRPRTNPRP
shrunken log2 fold change: -0.42

RRIRGRPPRLPRPRPRPVENPRP
shrunken log2 fold change: 0.757

RRIRKRPPRLPRPRPRPLTAPRP
shrunken log2 fold change: 0.403

RRIRNRPPRLPRPRPRPPYYPRP
shrunken log2 fold change: -0.575

RRIRYRPPRLPRPRPRPRQQPRP
shrunken log2 fold change: 0.226

RRIRQRPPRLPRPRPRPWIMPRP
shrunken log2 fold change: -0.141

RRIRARPPRLPRPRPRPQGKPRP
shrunken log2 fold change: 0.128

RRIRFRPPRLPRPRPRPVRAPRP
shrunken log2 fold change: 0.495

RRIRVRPPRLPRPRPRPQWIPRP
shrunken log2 fold change: -0.895

RRIRSRPPRLPRPRPRPRNFPRP
shrunken log2 fold change: 0.146

RRIRRRPPRLPRPRPRPWFSPRP
shrunken log2 fold change: -0.0902

RRIRERPPRLPRPRPRPFYHPRP
shrunken log2 fold change: -1.01

RRIRFRPPRLPRPRPRPWRCPRP
shrunken log2 fold change: 0.174
